# Literature values, collected in publication PMC10839879.
# Molecular target: RNH1 (Homo sapiens) (UniProt P13489)
# Sequence of UniProt P13489 (P13489 2-461): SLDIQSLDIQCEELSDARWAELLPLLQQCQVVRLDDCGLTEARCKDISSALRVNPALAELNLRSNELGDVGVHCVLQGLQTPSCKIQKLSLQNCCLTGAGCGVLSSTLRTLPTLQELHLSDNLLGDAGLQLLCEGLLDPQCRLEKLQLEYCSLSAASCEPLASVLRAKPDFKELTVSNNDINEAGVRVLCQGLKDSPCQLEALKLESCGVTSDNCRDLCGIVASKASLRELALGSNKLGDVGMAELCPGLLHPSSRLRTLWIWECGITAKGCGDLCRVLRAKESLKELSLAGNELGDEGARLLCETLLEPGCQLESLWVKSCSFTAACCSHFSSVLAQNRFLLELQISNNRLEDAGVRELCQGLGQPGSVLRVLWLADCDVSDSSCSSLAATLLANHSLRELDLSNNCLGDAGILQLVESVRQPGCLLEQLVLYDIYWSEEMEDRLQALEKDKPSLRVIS
substance,measurement,value
angiogenin (from UniProt P03950),Kd,0.001 pM
